From patent publication US7977317B2, “Compositions and methods for modulating blood-brain barrier transport” (Raptor Pharmaceutical Inc., priority 2001, dated 2011)

Columns and labels:
BBCEC monolayers = test: Transcytosis of bovine [125I]-lactoferrin across BBCEC monolayers, inhibition by p97; assay type: cell-based; settings: 200-fold molar excess of unlabelled p97, 37° C. (FIG. 16c)
LRP1B = test: RT-PCR after p97 and RAP treatments in U-87 cells: LRP1B; assay type: cell-based, human; settings: 72 hours, RT-PCR (FIG. 35)
Protocol: FIG. 34. Effect of p97 and RAP treatments in U-87 cells. A. Cells (2×10^5) were plated onto six-multiwell microplates and grown at 37° C. under 5% CO2 with optimal culture medium supplemented with serum for 4 days. Treatment was performed in serum free medium for 72 hours. RNA isolation and RT-PCR were performed as described in the Examples. B. LRP/LRP1B was immunodetected in cells lysates as described in the Examples. […] (N=2 for p97 treatment), (n=1 for RAP treatment)
FIG. 35. Effect of p97 and RAP treatments in U-87 cells (RT-PCR). Cells (2×10^5) were plated onto six-multiwell microplates and grown at 37° C. under 5% CO2 with optimal culture medium supplemented with serum for 4 days. Treatment was performed in serum free medium for 72 hours. RNA isolation and RT-PCR were performed as described in the Examples. The amplified PCR products were electrophoresed on a 2% agarose gel and visualized under ultraviolet light. (n=2 for p97), (n=1 for RAP)
RNA extraction. Cells in six-wells plate or in 75 cm^2 plastic tissue culture flasks were grown at 37° C. under 5% CO2 with optimal culture medium to 80-90% confluence. Total cellular RNA was preserved in Trizol (Gibco BRL, Burlington, ON). The solution are frozen at −80° C. until extraction. The solution was defroze and mixed with 5:1 chloroform for 3 minutes at room temperature. The suspension was centrifugated at 12000 g at 4° C. […]

BBCECs = test: Binding of [125I]-p97 to BBCECs with saponin treatment (Scatchard); design: species or system bovine; settings: 200-fold molar excess, after saponin treatment (FIG. 12b)
Protocol: FIG. 12 illustrates the Binding of p97 to BBCE cells. FIG. 12a, p97 binding experiments were performed with BBCECs that were either pre-incubated in Ringer-Hepes solution or pre-treated with saponin. BBCECs were then incubated for 2 hrs at 4° C. with [^125I]-p97 (25 nM). At the end of the incubation, the filters were gently washed with cold PBS and then the radioactivity associated with the ECs was quantified; FIG. 12b, The binding of [^125I]-p97 was also performed with increasing concentrations of unlabelled p97 following saponin treatment. The results were expressed as the percentage of the [^125I]-p97 binding measured in the absence of unlabelled p97; FIG. 12c, The results were also transformed with a Scatchard plot and expressed as the ratio of bound p97/free p97 as a function of the bound p97 (n=5).
Transcytosis and binding experiments. […] At the end of the experiment, [^125I]-p97 was quantitated in 500 μl of the lower chamber of each well by TCA precipitation. We also measured p97 in 50 μl of the lower chamber of each well by SDS-PAGE according to the method of Laemmli (Laemmli, U.K. Nature; 227: 680-685 (1970)). Proteins were separated on 7.5% acrylamide gels, stained with Coomassie Blue, dried and analysed by densitometry. […] After 2 hrs at 4° C., ECs were gently washed, and the [^125I]-p97 attached to the ECs was quantified in a liquid scintillation counter. […]

B1: p97: recombinant human melanotransferrin (p97), provided by Synapse Technologies (protein, UniProt P08582 20-709, looked up)
Melanotransferrin: GMEVRWCATSDPEQHKCGNMSEAFREAGIQPSLLCVRGTSADHCVQLIAAQEADAITLDGGAIYEAGKEHGLKPVVGEVYDQEVGTSYYAVAVVRRSSHVTIDTLKGVKSCHTGINRTVGWNVPVGYLVESGRLSVMGCDVLKAVSDYFGGSCVPGAGETSYSESLCRLCRGDSSGEGVCDKSPLERYYDYSGAFRCLAEGAGDVAFVKHSTVLENTDGKTLPSWGQALLSQDFELLCRDGSRADVTEWRQCHLARVPAHAVVVRADTDGGLIFRLLNEGQRLFSHEGSSFQMFSSEAYGQKDLLFKDSTSELVPIATQTYEAWLGHEYLHAMKGLLCDPNRLPPYLRWCVLSTPEIQKCGDMAVAFRRQRLKPEIQCVSAKSPQHCMERIQAEQVDAVTLSGEDIYTAGKTYGLVPAAGEHYAPEDSSNSYYVVAVVRRDSSHAFTLDELRGKRSCHAGFGSPAGWDVPVGALIQRGFIRPKDCDVLTAVSEFFNASCVPVNNPKNYPSSLCALCVGDEQGRNKCVGNSQERYYGYRGAFRCLVENAGDVAFVRHTTVFDNTNGHNSEPWAAELRSEDYELLCPNGARAEVSQFAACNLAQIPPHAVMVRPDTNIFTVYGLLDKAQDLFGDDHNKNGFKMFDSSNYHGQDLLFKDATVRAVPVGEKTTYRGWLGLDYVAALEGMSSQQC
In the case of B1, the “Inhibition of the transcytosis of bovine [125I]-lactoferrin” value (BBCEC monolayers) is reported as “more than 75%”, the “Expression of the LRP1B receptor” value (LRP1B) is reported as “induces the expression” and the “Inhibition of radiolabel ([125I]-p97) binding by unlabelled p97” value (BBCECs) is reported as “approximately 50%”.
